Experimental findings from PMC314469, “Protein Interaction Networks by Proteome Peptide Scanning” (PLoS Biology, 2004) are described below.

Sequences and labels used below:
T1: Boi2 SH3 (BOI2_YEAST), P39969
T1 chain: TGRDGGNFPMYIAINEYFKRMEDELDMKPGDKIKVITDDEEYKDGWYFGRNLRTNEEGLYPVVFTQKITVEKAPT

T2: Yfr024 SH3 (LSB3_YEAST), P43603
T2 chain: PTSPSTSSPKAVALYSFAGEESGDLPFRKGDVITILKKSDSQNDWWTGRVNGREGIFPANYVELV

T3: Boi1 SH3 (BOI1_YEAST), P38041
T3 chain: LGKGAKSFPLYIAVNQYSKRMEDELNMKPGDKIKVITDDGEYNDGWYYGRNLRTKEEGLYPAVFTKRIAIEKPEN

T4: Yhr016c SH3 (YSC84_YEAST), P32793
T4 chain: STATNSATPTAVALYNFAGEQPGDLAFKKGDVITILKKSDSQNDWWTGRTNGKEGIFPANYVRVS

T5: Rvs167 SH3 (RV167_YEAST), P39743
T5 chain: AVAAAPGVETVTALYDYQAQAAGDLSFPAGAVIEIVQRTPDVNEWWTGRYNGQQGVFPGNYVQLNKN

T6: Myo5 SH3 (MYO5_YEAST), Q04439
T6 chain: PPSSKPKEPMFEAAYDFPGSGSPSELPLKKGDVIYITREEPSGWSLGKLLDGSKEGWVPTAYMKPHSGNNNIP

The first assay concerns the target T1, Boi2 SH3 (BOI2_YEAST), P39969. The experiment in a line: SPOT array.
Take KTRNKPKPLWPQVK [YGR033C 56-69]: the normalised SPOT signal, Boehringer light units (BLU); mean over the file's lines of this peptide worked out at 43.4.
The same measure, in the same setting: next, KRRSKSLPTTPGIR [YER054C 189-202]: 0.8; KSIPRTKPNVPPLQ [YDR466W 448-461]: 5.4; KSLQKFEPRYPKTA [YMR014W 24-37]: 0.
Still for that read-out and setting: to KRRSKSLPITPKSI [YIL045W 157-170] belongs 6.2; to KTSTKAQPAEPQAE [YNL071W 132-145], 3.7.
The same measure, in the same setting: to KSYRKADPTNPQGW [YBR055C 231-244] belongs 0; to KVIRKGSPKSPAMV [YKL170W 23-36], 0; to KRKAKAPPPPPPPP [YDL146W 469-482], 22.4.
Take KTVDKGLPMIPTYV [YDR516C 56-69]: the normalised SPOT signal, Boehringer light units (BLU); mean over the file's lines of this peptide is 5.
Molecule KVLIKTLPVLPEAR [YNL271C 1679-1692] gave a normalised SPOT signal, Boehringer light units (BLU); mean over the file's lines of this peptide of 5.4.
As to KQSKRARPSSPYTV [YOR153W 486-499], the normalised SPOT signal, Boehringer light units (BLU); mean over the file's lines of this peptide was found to be 11.9.
Molecule KTKKKTVPVKPLQL [YBL017C 684-697] registered a normalised SPOT signal, Boehringer light units (BLU); mean over the file's lines of this peptide of 67.6.
On the same count and under the same terms, next, KTGRKTFPFLPYQI [YGL012W 364-377]: 29.6.

The target in the next assay is T2, Yfr024 SH3 (LSB3_YEAST), P43603. Put plainly: SPOT array.
The molecule KTRNKPKPLWPQVK [YGR033C 56-69] returned a normalised SPOT signal, Boehringer light units (BLU); mean over the file's lines of this peptide of 178.
Still for that read-out and setting: next, KRRSKSLPTTPGIR [YER054C 189-202]: 562.
Same read-out and setting: to KSIPRTKPNVPPLQ [YDR466W 448-461] belongs 62.6; to KSLQKFEPRYPKTA [YMR014W 24-37], 134; to KRRSKSLPITPKSI [YIL045W 157-170], 559.
Still for that read-out and setting: next, KTSTKAQPAEPQAE [YNL071W 132-145]: 162; KSYRKADPTNPQGW [YBR055C 231-244]: 94.7; KVIRKGSPKSPAMV [YKL170W 23-36]: 180.
In the case of KRKAKAPPPPPPPP [YDL146W 469-482], the normalised SPOT signal, Boehringer light units (BLU); mean over the file's lines of this peptide was 19.3.
For KTVDKGLPMIPTYV [YDR516C 56-69], the normalised SPOT signal, Boehringer light units (BLU); mean over the file's lines of this peptide worked out at 11.9.
Regarding KVLIKTLPVLPEAR [YNL271C 1679-1692], the normalised SPOT signal, Boehringer light units (BLU); mean over the file's lines of this peptide turned out to be 251.
Same read-out and setting: to KQSKRARPSSPYTV [YOR153W 486-499] belongs 462.
Molecule KTKKKTVPVKPLQL [YBL017C 684-697] returned a normalised SPOT signal, Boehringer light units (BLU); mean over the file's lines of this peptide of 179.
Still for that read-out and setting: next, KTGRKTFPFLPYQI [YGL012W 364-377]: 171.

Another assay has as its target T3, Boi1 SH3 (BOI1_YEAST), P38041. Put plainly: SPOT array.
As to KTRNKPKPLWPQVK [YGR033C 56-69], the normalised SPOT signal, Boehringer light units (BLU); mean over the file's lines of this peptide was 1200.
On the same count and under the same terms, next, KRRSKSLPTTPGIR [YER054C 189-202]: 310; KSIPRTKPNVPPLQ [YDR466W 448-461]: 613.
Same read-out and setting: to KSLQKFEPRYPKTA [YMR014W 24-37] belongs 815; to KRRSKSLPITPKSI [YIL045W 157-170], 585.
Still for that read-out and setting: to KTSTKAQPAEPQAE [YNL071W 132-145] belongs 84.2; to KSYRKADPTNPQGW [YBR055C 231-244], 78.2; to KVIRKGSPKSPAMV [YKL170W 23-36], 457.
Molecule KRKAKAPPPPPPPP [YDL146W 469-482] registered a normalised SPOT signal, Boehringer light units (BLU); mean over the file's lines of this peptide of 1100.
The same measure, in the same setting: next, KTVDKGLPMIPTYV [YDR516C 56-69]: 14.3.
With KVLIKTLPVLPEAR [YNL271C 1679-1692], the normalised SPOT signal, Boehringer light units (BLU); mean over the file's lines of this peptide is 142.
The same measure, in the same setting: to KQSKRARPSSPYTV [YOR153W 486-499] belongs 291.
On the same count and under the same terms, to KTKKKTVPVKPLQL [YBL017C 684-697] belongs 1240; to KTGRKTFPFLPYQI [YGL012W 364-377], 129.

The target in the next assay is Sho1 SH3 (SHO1_YEAST), P40073. The experiment in a line: SPOT array.
Sho1 SH3 (SHO1_YEAST), P40073, sequence (P40073 295-366): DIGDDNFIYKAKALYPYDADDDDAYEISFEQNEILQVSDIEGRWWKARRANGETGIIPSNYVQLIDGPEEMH
With KTRNKPKPLWPQVK [YGR033C 56-69], the normalised SPOT signal, Boehringer light units (BLU); mean over the file's lines of this peptide amounted to 115.
On the same count and under the same terms, next, KRRSKSLPTTPGIR [YER054C 189-202]: 29800; KSIPRTKPNVPPLQ [YDR466W 448-461]: 46.8; KSLQKFEPRYPKTA [YMR014W 24-37]: 38.8.
The same measure, in the same setting: next, KRRSKSLPITPKSI [YIL045W 157-170]: 19400; KTSTKAQPAEPQAE [YNL071W 132-145]: 6.5.
Still for that read-out and setting: next, KSYRKADPTNPQGW [YBR055C 231-244]: 29; KVIRKGSPKSPAMV [YKL170W 23-36]: 49.9.
In the case of KRKAKAPPPPPPPP [YDL146W 469-482], the normalised SPOT signal, Boehringer light units (BLU); mean over the file's lines of this peptide turned out to be 17.5.
The same measure, in the same setting: next, KTVDKGLPMIPTYV [YDR516C 56-69]: 8310.
On the same count and under the same terms, next, KVLIKTLPVLPEAR [YNL271C 1679-1692]: 3050.
The same measure, in the same setting: to KQSKRARPSSPYTV [YOR153W 486-499] belongs 99.9.
Take KTKKKTVPVKPLQL [YBL017C 684-697]: the normalised SPOT signal, Boehringer light units (BLU); mean over the file's lines of this peptide came to 34.1.
The same measure, in the same setting: to KTGRKTFPFLPYQI [YGL012W 364-377] belongs 140.

Another assay deals with T4, Yhr016c SH3 (YSC84_YEAST), P32793. Put plainly: SPOT array.
Molecule KTRNKPKPLWPQVK [YGR033C 56-69] returned a normalised SPOT signal, Boehringer light units (BLU); mean over the file's lines of this peptide of 35.
Still for that read-out and setting: next, KRRSKSLPTTPGIR [YER054C 189-202]: 34.5.
The molecule KSIPRTKPNVPPLQ [YDR466W 448-461] came in with a normalised SPOT signal, Boehringer light units (BLU); mean over the file's lines of this peptide of 27.5.
On the same count and under the same terms, next, KSLQKFEPRYPKTA [YMR014W 24-37]: 50.8; KRRSKSLPITPKSI [YIL045W 157-170]: 58.1.
As to KTSTKAQPAEPQAE [YNL071W 132-145], the normalised SPOT signal, Boehringer light units (BLU); mean over the file's lines of this peptide was 43.6.
Same read-out and setting: to KSYRKADPTNPQGW [YBR055C 231-244] belongs 9.6; to KVIRKGSPKSPAMV [YKL170W 23-36], 8.7; to KRKAKAPPPPPPPP [YDL146W 469-482], 11.5.
The same measure, in the same setting: next, KTVDKGLPMIPTYV [YDR516C 56-69]: 20.1; KVLIKTLPVLPEAR [YNL271C 1679-1692]: 0; KQSKRARPSSPYTV [YOR153W 486-499]: 66.6.
The same measure, in the same setting: next, KTKKKTVPVKPLQL [YBL017C 684-697]: 38.
KTGRKTFPFLPYQI [YGL012W 364-377] came in with a normalised SPOT signal, Boehringer light units (BLU); mean over the file's lines of this peptide of 26.1.

Another assay addresses T5, Rvs167 SH3 (RV167_YEAST), P39743. Put plainly: SPOT array.
KTRNKPKPLWPQVK [YGR033C 56-69] came in with a normalised SPOT signal, Boehringer light units (BLU); mean over the file's lines of this peptide of 56.8.
Still for that read-out and setting: to KRRSKSLPTTPGIR [YER054C 189-202] belongs 17.6; to KSIPRTKPNVPPLQ [YDR466W 448-461], 39.9.
Consider KSLQKFEPRYPKTA [YMR014W 24-37], for which the normalised SPOT signal, Boehringer light units (BLU); mean over the file's lines of this peptide was 112.
KRRSKSLPITPKSI [YIL045W 157-170]: the normalised SPOT signal, Boehringer light units (BLU); mean over the file's lines of this peptide amounted to 125.
Still for that read-out and setting: to KTSTKAQPAEPQAE [YNL071W 132-145] belongs 72.7; to KSYRKADPTNPQGW [YBR055C 231-244], 56.
With KVIRKGSPKSPAMV [YKL170W 23-36], the normalised SPOT signal, Boehringer light units (BLU); mean over the file's lines of this peptide was 200.
In the case of KRKAKAPPPPPPPP [YDL146W 469-482], the normalised SPOT signal, Boehringer light units (BLU); mean over the file's lines of this peptide was determined as 31.2.
Same read-out and setting: to KTVDKGLPMIPTYV [YDR516C 56-69] belongs 24.1; to KVLIKTLPVLPEAR [YNL271C 1679-1692], 84.2; to KQSKRARPSSPYTV [YOR153W 486-499], 102.
Still for that read-out and setting: next, KTKKKTVPVKPLQL [YBL017C 684-697]: 44.3; KTGRKTFPFLPYQI [YGL012W 364-377]: 56.2.

Another assay deals with T6, Myo5 SH3 (MYO5_YEAST), Q04439. Put plainly: SPOT array.
On to KTRNKPKPLWPQVK [YGR033C 56-69], for which the normalised SPOT signal, Boehringer light units (BLU); mean over the file's lines of this peptide turned out to be 262.
As for KRRSKSLPTTPGIR [YER054C 189-202], the normalised SPOT signal, Boehringer light units (BLU); mean over the file's lines of this peptide is 592.
The same measure, in the same setting: to KSIPRTKPNVPPLQ [YDR466W 448-461] belongs 343; to KSLQKFEPRYPKTA [YMR014W 24-37], 245.
On the same count and under the same terms, next, KRRSKSLPITPKSI [YIL045W 157-170]: 921; KTSTKAQPAEPQAE [YNL071W 132-145]: 167; KSYRKADPTNPQGW [YBR055C 231-244]: 103.
On the same count and under the same terms, to KVIRKGSPKSPAMV [YKL170W 23-36] belongs 496.
As for KRKAKAPPPPPPPP [YDL146W 469-482], the normalised SPOT signal, Boehringer light units (BLU); mean over the file's lines of this peptide amounted to 4030.
Same read-out and setting: to KTVDKGLPMIPTYV [YDR516C 56-69] belongs 76.8; to KVLIKTLPVLPEAR [YNL271C 1679-1692], 237.
Same read-out and setting: next, KQSKRARPSSPYTV [YOR153W 486-499]: 271; KTKKKTVPVKPLQL [YBL017C 684-697]: 359; KTGRKTFPFLPYQI [YGL012W 364-377]: 466.
